Measured values as given in patent US20240043534A1.
Where a chain is given by its changes, count along the chain named.

Columns and labels:
[1] = molecular target: yeast histone chaperone protein Asf1 (Anti-silencing factor 1) (yeast) (UniProt P32447); assay: cell-based or functional assay
[2] = molecular target: N-terminal methyltransferase domain of the Zika virus bifunctional NS5 enzyme (MT ZIKV) (Zika virus); assay: cell-based or functional assay
[3] = molecular target: N-terminal methyltransferase domain of the Zika virus bifunctional NS5 enzyme (MT ZIKV) (Zika virus); assay: SPR, Fab as analyte on His-tag-immobilized antigen
[4] = molecular target: Fab^H(Her2)-linker-GA1 fusion (13 residue linker); assay: cell-based or functional assay
[5] = molecular target: Fab^H (Herceptin Fab scaffold with wt human kappa Lc; Lc aa 123-127 EQLKS); assay: SPR (preliminary results), Protein G variant against Fab scaffold
[6] = molecular target: “Λ” Fab scaffold (4D5 scaffold with SEELQANK in the Lc region); assay: as above
[7] = molecular target: Fab with CK (kappa) light chain constant domain; assay: ELISA
[8] = molecular target: FabHS (human 4D5 scaffold with residues PEELRTNK replacing amino acids corresponding to 15-22 of SEQ ID NO:1); assay: protein ELISA
Sequence of FabHS (human 4D5 scaffold with residues PEELRTNK replacing amino acids corresponding to 15-22 of SEQ ID NO:1) (light, as listed by the source): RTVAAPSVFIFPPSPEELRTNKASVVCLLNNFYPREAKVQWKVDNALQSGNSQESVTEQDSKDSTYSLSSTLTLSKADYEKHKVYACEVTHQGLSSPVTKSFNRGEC

Sequence of yeast histone chaperone protein Asf1 (Anti-silencing factor 1) (yeast) (P32447 1-158 limits assumed): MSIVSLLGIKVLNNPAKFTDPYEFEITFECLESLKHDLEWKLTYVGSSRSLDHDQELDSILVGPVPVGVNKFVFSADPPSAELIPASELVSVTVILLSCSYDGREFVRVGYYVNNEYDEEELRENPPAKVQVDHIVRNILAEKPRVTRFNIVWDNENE
Sequence of “Λ” Fab scaffold (4D5 scaffold with SEELQANK in the Lc region) (light, as listed by the source): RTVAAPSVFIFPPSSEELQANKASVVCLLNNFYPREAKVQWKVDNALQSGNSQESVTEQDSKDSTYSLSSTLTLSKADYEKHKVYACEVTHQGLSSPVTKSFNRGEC

B1: E11 Asf1 LRT-Fab (Fab, V domains shown)
VH: EVQLVESGGGLVQPGGSLRLSCAASGFNISYSSIHWVRQAPGKGLEWVASISSYYGSTYYADSVKGRFTISADTSKNTAYLQMNSLRAEDTAVYYCARSRGQASWDYWGQGTLVTVSS
VL: DIQMTQSPSSLSASVGDRVTITCRASQSVSSAVAWYQQKPGKAPKLLIYSASSLYSGVPSRFSGSRSGTDFTLTISSLQPEDFATYYCQQSSDDPITFGQGTKVEIKR
In the case of B1, the β-lactamase (BL) split-enzyme complementation, fluorescent signal [1] is reported as < 10 fold.

B2: Z2C4 ZIKV LRT-Fab (Fab, V domains shown)
VH: EVQLVESGGGLVQPGGSLRLSCAASGFNVYYSSIHWVRQAPGKGLEWVAYIYPSSGSTYYADSVKGRFTISADTSKNTAYLQMNSLRAEDTAVYYCARSWSPYGMDYWGQGTLVTVSS
VL: B1 VL with S91W, S92Y, D94S, P95L
B2 was tested, and the β-lactamase (BL) split-enzyme complementation, limit of antigen detection [2] was 30 nM and the Kd [3] was 0.7 nM.

B3: Z2G6 ZIKV LRT-Fab (Fab, V domains shown)
VH: EVQLVESGGGLVQPGGSLRLSCAASGFNVYYYYIHWVRQAPGKGLEWVASIYSYSGYTYYADSVKGRFTISADTSKNTAYLQMNSLRAEDTAVYYCAREGVWWEDEFYPGLDYWGQGTLVTVSS
VL: B1 VL with S92W, D93S, D94S, P95L, I96F
Work on B3 yielded a β-lactamase (BL) split-enzyme complementation, limit of antigen detection [2] of 30 nM, a Kd [3] of 1.7 nM and a koff [3] of 9.2e-05 s⁻¹.

B4: hOKT3(S)_LRT (Fab, V domains shown)
VH: EVQLVESGGGLVQPGGSLRLSCAASGYTFTRYTMHWVRQAPGKGLEWIGYINPSRGYTNYNQKFKDKATISTDKSKNTAYLQMNSLRAEDTAVYYCARYYDDHYSLDYWGQGTLVTVSS
VL: DIQMTQSPSSLSASVGDRVTITCSASSSVSYMNWYQQKPGKAPKRWIYDTSKLASGVPSRFSGSGSGTDYTLTISSLQPEDFATYYCQQWSSNPFTFGQGTKVEIKR
With B4 the redirected tumor-cell killing (LDH release), PBMC-SKBR3 co-cultures, bi-Fab at 50 nM [4] was < 70%.

B5: Protein G D (designed binder)
chain: TPAVTTYKLVINGRTLSGYTTTTAVDAATAEKVFKQIDMVSSVDGEWTYDDATKTFTVTEKPEKL
With B5 the Kd [5] was 15 nM and the Kd [6] was 50 nM.

B6: Protein-G-A1 (SEQ ID NO:27) (designed binder)
chain: MKGETTTEAVDAATAEKVFKQYANDNGVDGEWTYDDATKTFTVTEKPEVIDASELTPAVTTYKLVINGRTLSGYTTTTAVDAATAEKVFKQYAYVHEVDGEWTYDDATKTFTVTEKPEVIDASELTPAVTTYKLVINGRTLSGETTTKAVDAETAEKAFKQYANDNGVDGVWTYDDATKTFTVTE
For B6, the EC50 ratio (preference for CK over Cλ) [7] was > 5000.

B7: Protein-G-HS C6 (designed binder)
chain: MKGETTTEAVDAATAEKVFKQYANDNGVDGEWTYDDATKTFTVTEKPEVIDASELTPAVTTYKLVINGKTLKGETTTEAVDAATAEKVFKQYANDNGVDGEWTYDDATKTFTVTEKPEVIDASELTPAVTTYKLVINGRTLSGETTTKAVDAETAEKAFKQYSRPHVVDGVWTYDDATKTFTVTE
B7 was tested, and the IC50 [8] was 8 nM.

B8: Protein-G-HS C7 (designed binder)
chain: B7 chain with S163A, R164Y, P165G, H166A
B8 showed an IC50 [8] of 100 nM.
